Measured values taken from patent US20210347867A1.

Molecular target: amyloid peptide (not named; Aβ1-42, AβpE3-42 and 4-42 were tested)
Assay: SPR (Biacore); reference not named (variants were made to raise the affinity of RHS71/RKA)

fold improvement on the Biacore: 2 fold
B1: humanized NT4X-167 RHS71/RKH (antibody, V domains shown)
VH: QVQLQESGPGLVKPSETLSLTCTVSGFSLSSYGIHWIRQPPGKGLEWIGVMWSGGITNYYPSLKSRVTISRDTSKNQVSLKLSSVTAADTAVYYCARGSRYALDYWGQGTLVTVSS
VL: DIQMTQSPSSLSASVGDRVTITCRASQDISNYLNWYQQKPGKAPKLLIYYTSRLHSGVPSRFSGSGSGTDFTLTISSLQPEDFATYYCQQGHTLPPTFGGGTKLEIK
